Test results published in the domain aggregation screens of Martell et al. (2025).

Experiment: soluble fraction after stress (log2 fold change); higher = more stays soluble; pooled small domains, quantitative proteomics
Details: stress: pH 4
Method in brief: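 How much of each domain stays soluble after acid stress, expressed as a fold change, is used to gauge aggregation propensity. Pooled custom libraries of small domains underwent pH 4 stress before high-throughput quantitative proteomics. A higher log2 value means more of the domain stayed soluble.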

Row | Sequence | soluble fraction (log2)
1 | HMSGTMYATAEVNVRSTYSSDGTIYGTLSKGTAVEITGTTDNGWVRVKYNGTTAYVYADYLSWKAP | 0.144
2 | HMQIVHKHLQLQPDQGALRAALYSHKAVVAEQVNEQGAINLEIKLAESDFLRLLKSSGLKLQDLVSLS | -1.16
3 | HMESYWVVLRPMAAGTQIGANDLGYRSVALGAAAKNYLAASTNPIGSITRRRLVAGELLQGSSLTDDARA | 0.185
4 | HMTVSADQTTADAVIKLIDAIGTVSKNSGSAISAARSGYDALTDAQKKLVTNYNKLTQAEQVFSSLS | -0.165
5 | HMLVGRDPQALILGSMPSEKSLEEDEYYAHPRNRFWSLMNWLLAGNKTRPAYKTGIEILSSHGIALWV | -0.578
6 | HMAELAKAKLDAAVQVALLKAGALDTDYLAYKLQGMDGVALDDKGSLTGWDTTLETLKSQYPTQFA | -0.388
7 | HMELDFNSVYRQLNHEQKQAYQSIKSVLEQKISGSELDKKLKQAQQAFVAKFKENPNFEVPK | 0.22
8 | HMRSMEKRLTAKVKRVQEGVQAKSQAGEQPFEVVKLMQRFPKLMQFGKHAEAETVLDKALELLGEE | -0.373
9 | HMAAHWANFLEALRAGRARRVLVARGVEGWLLKELERLGAPYTLVPRIELDTLLRTTHHQGIAAEVE | -0.748
10 | HMDSVEMFSPILGMNANMDLDTLTQTRDKLLEKYKDDEQLIGLVNKTYDYFNEILLKQFLIEELEKNE | -0.207
11 | HMDIKEIIKNRRIELGLTLKEVATAVGVSEGTVSRWESGNITNMKRNKIAALAKTLQIPPTTI | 0.0875
12 | HMGNPSGLPLPRFASTRSEPINVRVGPGQKYDIAWTYLKSGIPVEIIQEFDTWRKIRDFDGAEGWIHQNLL | -0.398
13 | HMEDQITNQQFTMTKQSILDLLVKKSYPPYELANELHLKKEEVLPIIRFLIAENEIHFKDGMLHLPH | -0.0688
14 | HMRSTIYEFTVPPGQLESIRLDVYITSFVENATRSKVQEAIKQGYVWVNGKHEKASYTMLPGDKIYIELPI | -0.497
15 | HMTGENWAERSRQLAAAGLLVLGKEAQEKIASLPNLIPLIEAAAASDTRLLNAQTIDELLSFVPTEETI | -0.98
16 | HMIIMVNLYQIWDKEVQGLDSVGAKPEQIEARRQAIAAHFESKARQAGMSSKDIYATLDNFDTYSRQKTS | -1.3
17 | HMRIYFSPSEIGFYHESDKQAYLLAGTWPNDLLEISEKWFLYLLEGQQKGKVITVNDYDQPVLVD | -2.28
18 | HMDVSASEVGLTGRQTDVLSLMVKGRSNRDIAELLGLSEGTVKIHITAIFKALGVASRTQALVAAARLGLK | -0.212
19 | HMAAQDIILKRNAEQIEAIVKEITDTDVKYRKFTNTEGVTYSIRRSEVFSITYENGTMDLFA | 0.206
20 | HMKTFSTRLIALREAIGVNQSELARRVGVTPQAVQKWESGANGPRGKRLEKLASELRSTVGYLVSGEGDG | 0.0382
21 | HMKEMTAKQIDMFSDKLSKLESFQSHYIADAGVSVTEYKQAIAAKLQDQFYVEAWGKYLADVGFT | -1.13
22 | HMINRPVYVPLYTNLDVKDAAEIAEKLEENNIAYKLEDQGETILVNPEQKYKVRLMLAQEGLPKG | 0.168
23 | HMKVSNWYFNGAPSATTPPTSQWTTEKDKKAHIGDTFTSLDKSPSPNAGKSWRYTPSYTWEEIV | 0.0965
24 | HMEAPMPIFWRPQFRIGHDDIDADHRYLILLINTVELVLRFPDDPRNVELALTELRRYAEDHFEREER | 0.0123
25 | HMKTNQINVSGLSKEKNFEVLESLDVYKFYNLFFLNKIKIDQLINSYNHIDNYSVFKKYPSSLIVKLSE | -0.0619
26 | HMKQPNFTVIETKILELLFQKDLSSREMQEILKISKDNLIFALQNLLEQEKIVLQTSNTYTVN | -2.02

Row | Sequence | soluble fraction (log2)
27 | HMRGIPEEVADVAIQWVARLDSNEISDADRAAFFAWLDASPINRWAYNDISESWAKLSILNEMGH | -1.8
28 | HMAGDVVVEVVGKVRDPQVVTLPKGSRVQDALEAAGGVKPGVNTTDQNLARLLVDGEQIRIGLSS | 0.0302
29 | HMRFKPLAEILAAVQTRYAGRVLDVELDRDQAGRNVYEVKLLAADGSRREIHIDAVTGKEVSL | 0.178
30 | HMREEMYGLIGFITTSEVTDTFGQMEIKLENEPEMRINVRTNPGESLARGDAAKIISFNNSNGTFLVELTK | -0.564
31 | HMSKHATLLEALADLSVKLKPHSQLPSERALSEEYGVSRMTLRRAIDVLQARGYIYSVPSKGLFVSEP | -0.0584
32 | HMNVDSLVGSEARVTAEIDNRKETGTAMVNGQEWTARAESDEEIYPVGTIVEIRKIQGVKLIVSTH | 0.18
33 | HMTANPSTEEIMARVEAIPLPIKRLPPGQIVQAQTVAATVLRSNPGLDLAKAWKLAYATVTGQE | -0.00256
34 | HMADTSLDHLGVLVRHASDVDAWAEFFENRGVTLASQPRTHRDGARSFYVDDPDGNRVQVIYHPPI | -0.81
35 | HMVTTLLIINVAGKVKNPGVYQLPPGSRVVDALEAAGQQLKGVDISDINLARVLVDGEQILIGSN | -1.35
36 | HMFKDVTVPSVINKTEAEATNMLKGLNLVVSVEYEENANKSDGIVTAQNVNANKVIKEGETVTITVNKQP | 0.22
37 | HMENEIFVPKVFMDWYNKVDKSIKVFKAFNLIEKETDPRLKEWVEDNQDEFAKIWLGQLLPVV | -0.35
38 | HMRTTYKTRLETLLAGPMSAGDRRFASSLLDFYNRKNRLTPGRARFVAQLEDRYSAEALAARQG | -0.00949
39 | HMSTIKEKIIQYLDFKGISKYDFYQKTGVSNGVLSQKSGMSEDNIMRFLSYYDDINTDWLFYGKGEMIKT | -1.37
40 | HMGSIRDIIVQYLSKFDDPQPAAKIVEYVQQYRDTTESSIRSSMGSGDQFVQFSGGLYGLKDKTYAAWYSI | -0.383
41 | HMTESIKRDEAIRLNNGRIYTLDAAKIGTNEYEVMLFNPRTGEEIDSAKTSTEADAILQFDRLRRMYHR | -0.151
42 | HMQTMTDDQVMQYVISQQEKGATQQDIVSKLLQKGVTVDQMRRIRKKYEAQQSQPGALDLTGSS | -0.0786
43 | HMAAVAPPVLERIASDLATRFAGTLSPETVDRYVRESYHLLAERAGITRYLPSLTARFAGDRLDA | -0.208
44 | HMASDLPTVTIMGKTFYTYVAKKGESFFGIANRFGWDPELLVKTNRELETPLDKGALIYYPVPKKPK | -0.521
45 | HMTPATVVIPKVAGQTVAEAKETLKNANFEIGEEKDESSDTVEEGRVIRTDPESGTNRKEGTKINLIVSS | 0.0687
46 | HMKVQEMTANSFLTQWEAGNVKTLDILPEGIIKGELNDGTKFQLYYSSAAGLIDDVKKNPEKFANTTVSEK | -0.238
47 | HMGEGTAVGKALKFLAAQGKKFAPELLDMAGSLTGVEALSKLGDAIKGDPELSELDKRILLAELETDAV | -0.744
48 | HMKKHALFTLFKHHNANGTTVWYARFWDDATQRYAIARSTGVLAQGKRERHDEAITVAREMASSIQFS | 0.264
49 | HMKQQAYEQGKAAYQSGDWLRAVTQLGQVKEAGEKNGEVDHLLGNAYMKLGQFESAAYAYNSALEDVA | 0.123
50 | HMHMSLTEKYKELTDLAVSAGVQNLNVREQDGVLYVDGDASGAVKQQLWDTYGKLDPDYTSGDLVLNI | -0.696
51 | HMGQLVVHQIKGEASRLDKFLVVNIPKYSRSVWREMINNGSVQVNGRVVKPHLLVKEGDIITWSS | 0.0267
52 | HMGPVRDLGLLESAAHRPTTALWGRDVYATIEKKAAALLDSLVRDRPLADGNKRLGWLAALV | 0.0116

Row | Sequence | soluble fraction (log2)
53 | HMRSQLALVVRTGESQRLDNFLVNNLAWKSRNRLQGLIREGLVTVNGEKTKASRRVHLDDLVEIHL | -0.0501
54 | HMLSDSDTLRDLYLSEQIWNVGDLIRVKGKNDDTHPSWEIIRRGTNYITAIDENYKSHKVWLHDIDI | -1.4
55 | HMDDVIEVEGKVVEVLPNTKFIVELANSHKITAHISGKLRMNYIRIMKGDNVTVEMSPYDLTKGRIIWRS | -0.167
56 | HMNPSRPASKEELLGLFEHLERALDAVTFFRPAEKKPVVVQTLRAMLTKASFTEQDIRTMRGVIAALEN | -0.986
57 | HMSDAGAIEPTIKEILASNPKAVEEYLAGNIKNINALIGQSMKALHGKADPQTVRNLLAKLLDEM | -0.487
58 | HMISKQQRQALILDIIQKQSITSQEALLTELQRHHVMTTQTTVSRDIRALGIVRIKDVNGELSYQQLQ | -0.0545
59 | HMNLDYKQFQVFNNIETLNTFTNLLSDNKIDFEVENNSKIFDPSFANNDFEKEYIVKIHPNDFEKVY | -1.32
60 | HMILKNVTSDLANKRLDKVASILFQTYSRTQIKKWILEGRVLVNGEISNPKDHVHENDEIEINPI | ≥ 0.43
61 | HMVSFSIDEALVSAVKGPRSANVMSIQRQFLVRLSVERDGRVTITGANSKSVQQAREAVEAAVEEAKLHP | 0.238
62 | HMPLYKYYTSYQIEPGDTLTSIAQKYTINSDVSVQDYIDEVKKNNNLVSDKINSGSYLVVSYYSNEY | -1.24
63 | HMRQSKMREAILAAVSAQKLEISDLHVWRIGEQRYAAIIGLATTQAESVSALRDSLAQMDKLVHLTIDQ | -1.16
64 | HMAPSVNEVAWAQKIIDAHAEAAAAGKGLVVVDGKLIENLHVEEAKQLLSLSDAIAKNDASNG | -0.31
65 | HMYEDGGAFLKAEREKYGLTLTDIYEHTHIPVRKLKAYEMHEEEMPDRTRALLELYFDQVAYEYES | -0.339
66 | HMYITGAVIRKLREKNNITQLQLAERLRVSDKTISKWETGKGYPDITLLEPIAKTFSVSVTELISGDI | -0.84
67 | HMAASGTVNSGGDPLRVRADPNTSSQILTKLSDGTQVEVLEQAENGWYKIAHEGISGFVSGEYLVVH | -0.356
68 | HMGMSMNEFLNNRLEQLAVEAVDKSSLGEEIFFYAEPATINLFKDAVDEDEYKVVFPVLKSIIEVEQKLSR | -1.69
69 | HMNKNLQLMINEIKKGLASEDIETRKKSVLMLSRIDAPEIIQVLEPLKDDSSEEIRKISSKIISVLSKKYT | 0.332
70 | HMQSITAGDKVRVKNYTVSGGKKRGKVYGGAGTFVVYYEKYDVISVTGDRVVIGIGKAVTAAVHIDDLEK | -0.932
71 | HMSERQTGTVKWFNNAKGFGFITMADRPDDIFVHFRAIQGDGYRSLNEGEEVEFSLVEGPKGLQAEEVTK | -1.09
72 | HMSSQVFLGQKNSIAKYDLNENKPIWTKEIKGTPLILSTWKDMLLIQIQTWVSYTHMLVKQENGQTVWE | 0.282
73 | HMQQEPNFYIVDGNTNQIVDRYYAPDSNVAHQYLGQWRQQHDPQETGNYRYGRLSSETEERYRNLAA | 0.188
74 | HMEWGEADFVRLDEALATLRTLSPRQAEVVDLRFFSELSLEETAATLGLSLATVKRDWSVARLYLQRALS | -0.815
75 | HMKISIPQEYFEIYNVLKQRPMHINEISKILKKPVSEISGTISLMEIEGYITKLTTDQYVLKKI | -0.644
76 | HMKLPIEKESYRIIWDLEEESFRIRLKISENSPQEEKNILINQAIEDIENITGEPIDKSPYYVLYE | -1.04
